Measurements published in IntAct's records for PubMed 29039417.

B1: Protein PTHB1 (Homo sapiens), Q3SYG4 (parent)
chain: MSLFKARDWWSTILGDKEEFDQGCLCLANVDNSGNGQDKIIVGSFMGYLRIFSPHPAKTGDGAQAEDLLLEVDLRDPVLQVEVGKFVSGTEMLHLAVLHSRKLCVYSVSGTLGNVEHGNQCQMKLMYEHNLQRTACNMTYGSFGGVKGRDLICIQSMDGMLMVFEQESYAFGRFLPGFLLPGPLAYSSRTDSFLTVSSCQQVESYKYQVLAFATDADKRQETEQQKLGSGKRLVVDWTLNIGEQALDICIVSFNQSASSVFVLGERNFFCLKDNGQIRFMKKLDWSPSCFLPYCSVSEGTINTLIGNHNNMLHIYQDVTLKWATQLPHIPVAVRVGCLHDLKGVIVTLSDDGHLQCSYLGTDPSLFQAPNVQSRELNYDELDVEMKELQKIIKDVNKSQGVWPMTEREDDLNVSVVVSPNFDSVSQATDVEVGTDLVPSVTVKVTLQNRVILQKAKLSVYVQPPLELTCDQFTFEFMTPDLTRTVSFSVYLKRSYTPSELEGNAVVSYSRPTDRNPDGIPRVIQCKFRLPLKLICLPGQPSKTASHKITIDTNKSPVSLLSLFPGFASQSDDDQVNVMGFHFLGGARITVLASKTSQRYRIQSEQFEDLWLITNELILRLQEYFEKQGVKDFACSFSGSIPLQEYFELIDHHFELRINGEKLEELLSERAVQFRAIQRRLLARFKDKTPAPLQHLDTLLDGTYKQVIALADAVEENQGNLFQSFTRLKSATHLVILLIALWQKLSADQVAILEAAFLPLQEDTQELGWEETVDAAISHLLKTCLSKSSKEQALNLNSQLNIPKDTSQLKKHITLLCDRLSKGGRLCLSTDAAAPQTMVMPGGCTTIPESDLEERSVEQDSTELFTNHRHLTAETPRPEVSPLQGVSE
partner: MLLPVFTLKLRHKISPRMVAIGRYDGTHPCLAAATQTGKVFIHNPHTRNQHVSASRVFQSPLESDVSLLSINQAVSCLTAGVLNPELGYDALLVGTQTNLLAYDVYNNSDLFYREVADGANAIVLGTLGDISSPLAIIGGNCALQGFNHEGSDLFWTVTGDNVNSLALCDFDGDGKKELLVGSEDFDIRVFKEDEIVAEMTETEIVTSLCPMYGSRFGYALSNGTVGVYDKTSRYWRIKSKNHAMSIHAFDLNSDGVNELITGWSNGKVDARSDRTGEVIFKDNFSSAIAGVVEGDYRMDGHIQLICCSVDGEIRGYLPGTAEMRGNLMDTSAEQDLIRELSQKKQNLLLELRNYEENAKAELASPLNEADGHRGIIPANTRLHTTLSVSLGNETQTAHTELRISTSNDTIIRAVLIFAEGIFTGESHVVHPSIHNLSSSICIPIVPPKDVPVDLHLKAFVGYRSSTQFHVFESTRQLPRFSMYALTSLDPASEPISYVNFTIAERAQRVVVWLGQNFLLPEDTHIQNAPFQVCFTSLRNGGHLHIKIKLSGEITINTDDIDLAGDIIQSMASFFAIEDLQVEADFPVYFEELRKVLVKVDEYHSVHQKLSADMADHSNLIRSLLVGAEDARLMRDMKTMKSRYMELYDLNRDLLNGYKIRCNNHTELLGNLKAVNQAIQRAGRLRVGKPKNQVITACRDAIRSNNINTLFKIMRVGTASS

Variants of: B1
Details: with bbs2_human BBS2, Q9BXC9

Row | Variant | effect of a mutation on the interaction
1 | N658K | with no effect
2 | G659A | with no effect
3 | G659E | with no effect
4 | G659K | with no effect
5 | E660A | with no effect
6 | E660K | with no effect
7 | K661A | with no effect
8 | K661E | with no effect
9 | L662A | with no effect
10 | L662E | with no effect
11 | L662K | with no effect
12 | E663A | with no effect
13 | E663K | with no effect
14 | E664A | with no effect
15 | E664K | with no effect
16 | L665A | with no effect
17 | L665E | with no effect
18 | L665K | with no effect
19 | L665R | disrupting interaction strength
20 | L666A | with no effect
21 | L666E | with no effect
22 | L666K | with no effect
23 | S667A | with no effect

Row | Variant | effect of a mutation on the interaction
24 | S667E | with no effect
25 | S667K | with no effect
26 | E668A | with no effect
27 | E668K | with no effect
28 | R669A | with no effect
29 | R669E | with no effect
30 | R669K | with no effect
31 | A670E | with no effect
32 | A670K | with no effect
33 | A670T | disrupting interaction strength
34 | V671A | with no effect
35 | V671E | with no effect
36 | V671K | with no effect
37 | Q672A | with no effect
38 | Q672E | with no effect
39 | Q672K | with no effect
40 | F673A | with no effect
41 | F673E | with no effect
42 | F673K | disrupting interaction strength
43 | R674A | with no effect
44 | R674E | with no effect
45 | R674K | with no effect
46 | R674P | disrupting interaction strength

Row | Variant | effect of a mutation on the interaction
47 | A675E | with no effect
48 | A675H | disrupting interaction strength
49 | A675K | with no effect
50 | I676A | with no effect
51 | I676E | with no effect
52 | I676K | with no effect
53 | Q677A | with no effect
54 | Q677E | with no effect
55 | Q677K | with no effect
56 | Q677Y | disrupting interaction strength
57 | R678A | with no effect
58 | R678E | with no effect
59 | R678K | with no effect
60 | R679A | with no effect
61 | R679E | with no effect
62 | R679G | disrupting interaction strength
63 | R679K | with no effect
64 | L680A | with no effect
65 | L680E | with no effect
66 | L680K | with no effect
67 | L681A | with no effect
68 | L681E | with no effect
69 | L681K | with no effect

Row | Variant | effect of a mutation on the interaction
70 | A682E | with no effect
71 | A682K | with no effect
72 | R683A | with no effect
73 | R683E | with no effect
74 | R683K | with no effect
75 | F684A | with no effect
76 | F684E | with no effect
77 | F684K | with no effect
78 | K685A | with no effect
79 | K685E | with no effect
80 | D686A | with no effect
81 | D686E | with no effect
82 | D686K | with no effect
83 | K687A | with no effect
84 | K687E | with no effect
85 | T688A | disrupting interaction strength
86 | T688E | disrupting interaction strength
87 | T688K | with no effect
88 | P689A | with no effect
89 | P689E | with no effect
90 | P689K | with no effect
91 | P689S | disrupting interaction strength
